Data on six molecules can be found in patent US20210180067, “NUCLEIC ACID APTAMERS” (UNIVERSITY OF IOWA RESEARCH FOUNDATION, published 2021).

Data set [1] has as its target T1, CD25 (IL-2 receptor alpha, IL2RA) (Homo sapiens, UniProt P01589 P01589:22-240). Briefly: pulldown; 100 nM RNA, CD25 Dynabeads, 2 mM CaCl2, 37 C, RT-qPCR; greater than C-248. The settings on record: tags: His-tag; Thermo Fisher. On the procedure:
(§1) Aptamer binding to recombinant CD25 protein or CD25-IL2 receptor-ligand complex-coated Dynabeads was measured as follows. Streptavidin-coated Dynabeads, antibody-coupling kit, and Dynabeads for His-tagged protein binding were obtained from Thermo Fisher. Histidine-tagged recombinant human CD25 (Thermo Fisher, USA) was coated onto His-tag-binding Dynabeads (Thermo Fisher, USA). Protein coated beads were blocked with binding buffer [HEPES-buffered saline with 2 mM CaCl2) containing 0.1 mg/ml BSA and tRNA. In cases where CD25-IL2 complexes were tested, equimolar amounts of IL2 was incubated with CD25-coated beads for 30 minutes at 37 degrees Celsius and the unbound IL2 was washed away. Folded aptamers were then incubated with CD25- or CD25-IL2-coated beads at a concentration of 100 nM for 30 minutes at 37 degrees Celsius under rotation. Beads were then washed thrice with binding buffer at 37 degrees Celsius. Bound RNA aptamers were extracted using Trizol spiked with M12-23 reference control and were quantified using SyBR green-based RT-qPCR assay. The bead-bound SEL2 aptamers were normalized to M12-23 reference control before further analysis. The values obtained for Treg-binding aptamers were normalized to the negative control aptamer, C-248, and plotted. Nucleotides corresponding to the N20 region are underlined and italicized.
(Quantitative PCR measures a nucleic acid by following its amplification.)

The target of data set [2] is T2, CD25 (IL2RA)-IL2 complex (Homo sapiens, UniProt P01589;P60568 P01589:22-240,P60568:21-153). Description: pulldown; binding increased vs unoccupied CD25; 2 mM CaCl2, 37 C, RT-qPCR; correlates with IL2 occupancy (R2=0.661). Particulars: tags: CD25 His-tagged, Thermo Fisher. As for the experimental part:
as §1

Data set [3] has as its target T1, CD25 (IL-2 receptor alpha, IL2RA). Description: pulldown; 100 nM RNA, CD25 Dynabeads, 2 mM CaCl2, 37 C, RT-qPCR; prefers unoccupied CD25. The settings on record: tags: His-tag; Thermo Fisher. On the procedure: as §1
The target of data set [4] is T2, CD25 (IL2RA)-IL2 complex. Description: pulldown; similar binding to unoccupied CD25 and complex; 2 mM CaCl2, 37 C, RT-qPCR. Particulars: tags: CD25 His-tagged, Thermo Fisher. As for the experimental part:
as §1

The target in data set [5] is T1, CD25 (IL-2 receptor alpha, IL2RA). Description: pulldown; negative control used for normalisation; 2 mM CaCl2, 37 C, RT-qPCR. Particulars: tags: His-tag; Thermo Fisher. As for the experimental part:
as §1

Data set [6] shares this target. Briefly: pulldown; 100 nM RNA, CD25 Dynabeads, HEPES saline 2 mM CaCl2, BSA, tRNA, 37 C, RT-qPCR; greater than C-248. Particulars: tags: His-tag; Thermo Fisher. As for the experimental part:
as §1

Data set [7] has as its target T2, CD25 (IL2RA)-IL2 complex. Briefly: pulldown; binding increased vs unoccupied CD25; 2 mM CaCl2, 37 C, RT-qPCR; correlates with IL2 occupancy (R2=0.724). Particulars: tags: CD25 His-tagged, Thermo Fisher. On the procedure:
as §1

T1 sequence (P01589 22-240, one chain of several): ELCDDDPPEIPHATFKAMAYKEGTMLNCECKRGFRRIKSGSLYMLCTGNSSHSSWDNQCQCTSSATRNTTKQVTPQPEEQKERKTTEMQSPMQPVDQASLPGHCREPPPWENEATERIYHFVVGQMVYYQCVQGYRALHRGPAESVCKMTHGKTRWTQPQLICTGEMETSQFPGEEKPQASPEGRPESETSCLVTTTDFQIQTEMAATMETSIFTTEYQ
T2 sequence (P01589 22-240, chain 1 of 2): as the sequence (P01589 22-240, one chain of several) above
T2 sequence (P60568 21-153, chain 2 of 2): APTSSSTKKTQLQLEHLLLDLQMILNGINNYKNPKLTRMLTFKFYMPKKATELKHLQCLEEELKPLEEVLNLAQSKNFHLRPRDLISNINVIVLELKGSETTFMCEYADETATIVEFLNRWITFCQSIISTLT

B1: Tr-7 (ssRNA)
RNA: GGGAGGACGAUGCGGUGAGUCGUUCCCUUCGUCCCCAGACGACUCGCCCGA
modifications: 2'-F C and U
Consider B1, for which the binding result (in data set [1]; with CD25 (IL2RA)-IL2 complex [2]) was “binds” in each case.

B2: Tr-6 (ssRNA)
RNA: GGGAGGACGAUGCGGCGUUUCCUCUGGUUCGUCCCCAGACGACUCGCCCGA
modifications: 2'-F C and U
As to B2, in data set [3], the binding result is “binds”.

B3: Tr-8 (ssRNA)
RNA: GGGAGGACGAUGCGGGCCGUUGUUGUGUGCCGCCCCAGACGACUCGCCCGA
modifications: 2'-F C and U
In the case of B3, in data set [3], the binding result is listed as “binds”.

B4: Tr-11 (ssRNA)
RNA: GGGAGGACGAUGCGGAUUCUGGUUACUGGCCGCCCCAGACGACUCGCCCGA
modifications: 2'-F C and U
For B4, the binding result (in the data set with CD25 (IL2RA)-IL2 complex [4]; in data set [1]) was “binds” in each case.

B5: C-248 (ssRNA)
RNA: GGGAGGACGAUGCGGCACACCGAAAUGUCCCGACUCAGACGACUCGCCCGA
modifications: 2'-F C and U
Take B5: the binding result in data set [5] is “no binding”.

B6: Tr-1 (ssRNA)
RNA: GGGAGGACGAUGCGGUCCUGUCGUCUGUUCGUCCCCAGACGACUCGCCCGA
modifications: 2'-F C and U
With B6, the binding result (in data set [6]; in the data set with CD25 (IL2RA)-IL2 complex [7]) was “binds” in each case.
